Reference: the supplement of paper PMC10567573

B1: SNAP91 (parent)
chain: FATASAAVPVSTSKPSSDLLDLQP

Variants of: B1
Assay: protein stability index of a GFP-peptide fusion (GPS, HEK-293T) (PSI 1-6); higher = more stable
Settings: c terminus: a fixed tail appended
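Further: lentivirally expressed fusions sorted by FACS into six bins by GFP to DsRed ratio, PSI derived from sequencing read proportions per bin multiplied by bin number.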

In order of falling protein stability index:
1. DATASAAVPVSTSKPSSDLLDLQP  5.71
2. EATASAAVPVSTSKPSSDLLDLQP  5.69
3. HATASAAVPVSTSKPSSDLLDLQP  5.52
4. QATASAAVPVSTSKPSSDLLDLQP  5.06
5. SATASAAVPVSTSKPSSDLLDLQP  4.99
6. RATASAAVPVSTSKPSSDLLDLQP  4.99
7. KATASAAVPVSTSKPSSDLLDLQP  4.92
8. TATASAAVPVSTSKPSSDLLDLQP  4.91
9. GATASAAVPVSTSKPSSDLLDLQP  4.89
10. AATASAAVPVSTSKPSSDLLDLQP  4.84
11. PATASAAVPVSTSKPSSDLLDLQP  4.84
12. MATASAAVPVSTSKPSSDLLDLQP  4.67
13. CATASAAVPVSTSKPSSDLLDLQP  4.64
14. LATASAAVPVSTSKPSSDLLDLQP  4.62
15. VATASAAVPVSTSKPSSDLLDLQP  4.54
16. NATASAAVPVSTSKPSSDLLDLQP  4.53
17. IATASAAVPVSTSKPSSDLLDLQP  4.5
18. FATASADVPVSTSKPSSDLLDLQP  4.5
19. FATASAEVPVSTSKPSSDLLDLQP  4.4
20. FAVASAAVPVSTSKPSSDLLDLQP  4.38
21. FAEASAAVPVSTSKPSSDLLDLQP  4.26
22. FATADAAVPVSTSKPSSDLLDLQP  4.17
23. FAQASAAVPVSTSKPSSDLLDLQP  4.15
24. FATAKAAVPVSTSKPSSDLLDLQP  4.11
25. FATAEAAVPVSTSKPSSDLLDLQP  4.02
26. FATASAMVPVSTSKPSSDLLDLQP  4.01
27. FATASAAVEVSTSKPSSDLLDLQP  3.99
28. FATASANVPVSTSKPSSDLLDLQP  3.9
29. FATASAFVPVSTSKPSSDLLDLQP  3.89
30. FADASAAVPVSTSKPSSDLLDLQP  3.8
31. YATASAAVPVSTSKPSSDLLDLQP  3.8
32. FATASAQVPVSTSKPSSDLLDLQP  3.79
33. FATASAAVDVSTSKPSSDLLDLQP  3.78
34. FLTASAAVPVSTSKPSSDLLDLQP  3.75
35. FATASAAVNVSTSKPSSDLLDLQP  3.75
36. FATASAAVTVSTSKPSSDLLDLQP  3.73
37. FATATAAVPVSTSKPSSDLLDLQP  3.73
38. FATAWAAVPVSTSKPSSDLLDLQP  3.73
39. FATASAGVPVSTSKPSSDLLDLQP  3.72
40. FAHASAAVPVSTSKPSSDLLDLQP  3.71
41. FATANAAVPVSTSKPSSDLLDLQP  3.66
42. FATASAPVPVSTSKPSSDLLDLQP  3.66
43. FATASARVPVSTSKPSSDLLDLQP  3.63
44. FATASASVPVSTSKPSSDLLDLQP  3.55
45. FATAPAAVPVSTSKPSSDLLDLQP  3.54
46. FATAGAAVPVSTSKPSSDLLDLQP  3.54
47. FATASAKVPVSTSKPSSDLLDLQP  3.54
48. FATASAAVHVSTSKPSSDLLDLQP  3.46
49. FATAAAAVPVSTSKPSSDLLDLQP  3.46
50. FACASAAVPVSTSKPSSDLLDLQP  3.45
51. FATARAAVPVSTSKPSSDLLDLQP  3.45
52. FASASAAVPVSTSKPSSDLLDLQP  3.39
53. FATAQAAVPVSTSKPSSDLLDLQP  3.38
54. FALASAAVPVSTSKPSSDLLDLQP  3.35
55. FATAHAAVPVSTSKPSSDLLDLQP  3.33
56. FATASAAVQVSTSKPSSDLLDLQP  3.31
57. FATASAAVSVSTSKPSSDLLDLQP  3.26
58. FANASAAVPVSTSKPSSDLLDLQP  3.24
59. FATASATVPVSTSKPSSDLLDLQP  3.24
60. FATASAHVPVSTSKPSSDLLDLQP  3.24
61. FATASAAVKVSTSKPSSDLLDLQP  3.23
62. FAKASAAVPVSTSKPSSDLLDLQP  3.22
63. FATAVAAVPVSTSKPSSDLLDLQP  3.21
64. FAMASAAVPVSTSKPSSDLLDLQP  3.16
65. FATASAIVPVSTSKPSSDLLDLQP  3.14
66. FATASACVPVSTSKPSSDLLDLQP  3.07
67. FATASAAVRVSTSKPSSDLLDLQP  3.05
68. FATASAVVPVSTSKPSSDLLDLQP  3.05
69. FATACAAVPVSTSKPSSDLLDLQP  3.02
70. FWTASAAVPVSTSKPSSDLLDLQP  2.96
71. FATASAAVAVSTSKPSSDLLDLQP  2.96
72. FATASALVPVSTSKPSSDLLDLQP  2.93
73. FATAMAAVPVSTSKPSSDLLDLQP  2.83
74. FAIASAAVPVSTSKPSSDLLDLQP  2.81
75. FAAASAAVPVSTSKPSSDLLDLQP  2.8
76. FATAIAAVPVSTSKPSSDLLDLQP  2.8
77. FHTASAAVPVSTSKPSSDLLDLQP  2.71
78. FAGASAAVPVSTSKPSSDLLDLQP  2.65
79. FAPASAAVPVSTSKPSSDLLDLQP  2.41
80. FATASAAVGVSTSKPSSDLLDLQP  2.3
81. FATASAAVMVSTSKPSSDLLDLQP  2.29
82. FATALAAVPVSTSKPSSDLLDLQP  2.28
83. FATASAAVCVSTSKPSSDLLDLQP  2.27
84. FATASAAVVVSTSKPSSDLLDLQP  2.24
85. FITASAAVPVSTSKPSSDLLDLQP  2.2
86. FAFASAAVPVSTSKPSSDLLDLQP  2.15
87. FAYASAAVPVSTSKPSSDLLDLQP  1.98
88. FATASAAVFVSTSKPSSDLLDLQP  1.93
89. FATASAAVLVSTSKPSSDLLDLQP  1.92
90. FATASAAVIVSTSKPSSDLLDLQP  1.87
91. FATAYAAVPVSTSKPSSDLLDLQP  1.67
92. FVTASAAVPVSTSKPSSDLLDLQP  1.65
93. FAWASAAVPVSTSKPSSDLLDLQP  1.64
94. FATAFAAVPVSTSKPSSDLLDLQP  1.45
